Earlier results, collected in paper PMC4512752.
Like-named read-outs stand apart in the source and are kept apart here. One block for each substance: values may come before it.

Tests used:
Assay in all cases: MALLS
[1] = molecular target: Arrestin-1 (Homo sapiens) (UniProt P10523)
[2] = molecular target: Arrestin-1 (Mus musculus) (UniProt P20443)
Arrestin-2 (Bos taurus) [3] = molecular target: Arrestin-2 (Bos taurus) (UniProt P17870)
Arrestin-2 (Bos taurus) [4] = molecular target: Arrestin-2 (Bos taurus) (UniProt P17870); remark: listed apart in the source
Arrestin-3 (Bos taurus) [5] = molecular target: Arrestin-3 (Bos taurus) (UniProt P32120)
Arrestin-3 (Bos taurus) [6] = molecular target: Arrestin-3 (Bos taurus) (UniProt P32120); remark: listed apart in the source

Kd [1]: 2.95 µM
Substance: Arrestin-1 (from UniProt P10523)

Kd [2]: 57.5 µM
Substance: Arrestin-1 (from UniProt P20443)

Kd (Arrestin-2 (Bos taurus) [3]): 5.5 µM
Kd (Arrestin-2 (Bos taurus) [4]): 100 µM
Substance: Arrestin-2 (from UniProt P17870)

Kd (Arrestin-3 (Bos taurus) [5]): 7.8 µM
Kd (Arrestin-3 (Bos taurus) [6]): 100 µM
Substance: Arrestin-3 (from UniProt P32120)
